Here are results for 19 sequences from the DeepSol protein solubility set.

The data set can be described thus: soluble on expression in E. coli; label from the status in PepcDB or PDB records.
In the case of “MDLLKKEYTGITYISGPLLFVENAKDLAYGAIVDIKDGTGRVRGGQVIEVSEEYAVIQVFEETTGLDLATTSVSLVEDVARLGVSKEMLGRRFNGIGKPIDGLPPITPEKRLPITGLPLNPVARRKPEQFIQTGISTIDVMNTLVRGQKLPIFSGSGLPANEIAAQIARQATVRPDLSGEGEKEEPFAVVFAAMGITQRELSYFIQEFERTGALSRSVLFLNKADDPTIERILTPRMALTVAEYLAFEHDYHVLVILTDMTNYCEALREIGAAREEIPGRRGYPGYMYTDLATIYERAGVVEGKKGSVTQIPILSMPDDDRTHPIPDLTGYITEGQIQLSRELHRKGIYPPIDPLPSLSRLMNNGVGKGKTREDHKQVSDQLYSAYANGVDIRKLVAIIGEDALTENDRRYLQFADAFERFFINQGQQNRSIEESLQIAWALLSMLPQGELKRISKDHIGKYYGQKLEEIWGAPQALD”, the “soluble on expression in E. coli” value is on record as “soluble”.

For “MGSDKIHHHHHHADKFVAKCPNEIFIGAILEANSINQDTYKFLKISMNPINMGYTIPIKSQTITPSYNNMMKAIHEALKTNDVLKSNYSFSFVIKKIKSYQELAVNWGQNINLQQLLGITPDYKPQKNIILIDINQSFFSIIMDMPESLSTDPQVLQQLDKLAFINSIQFGRKVILVIESNIDYDKLQEAIDNLLKSKEVSQKELAILANSNIRLMTIGNKEIKDINPDNPFTSILTYLSSTVTPDDFGGPISFSASNIKDNSVFVNYFNVQ”, the “soluble on expression in E. coli” value was “not soluble”. As for “MDKFRVQGPTKLQGEVTISGAKNAALPILFAALLAEEPVEIQNVPKLKDVDTSMKLLSQLGAKVERDGSVHIDARDVNVFCAPYDLVKTMRASIWALGPLVARFGQGQVSLPGGCTIGARPVDLHISGLEQLGATIKLEEGYVKASVDGRLKGAHIVMDKVSVGATVTIMCAATLAEGTTIIENAAREPEIVDTANFLITLGAKISGQGTDRIVIEGVERLGGGVYRVLPDRIETGTFLVAAAISRGKIICRNAQPDTLDAVLAKLRDAGADIEVGEDWISLDMHGKRPKAVNVRTAPHPAFPTDMQAQFTLLNLVAEGTGFITETVFENRFMHVPELSRMGAHAEIESNTVICHGVEKLSGAQVMATDLRASASLVLAGCIAEGTTVVDRIYHIDRGYERIEDKLRALGANIERVKGELVPR”, the entry is “soluble”; as for “MPDGQRVTKRSEDSRYFTVQPADTPGMANAQGYLPAHDAAGFDKRLDAIAATVCPNDPRTPDQRRADALGALGRYRDTLDCQCGREDCTAVAERDAVNNAMIHVLAEQSTLDGGNEPGYLPGFGMLPAHMVREVAKTATTKPVTIPKDKAQSGYRPNAELTEFIRWRDLTCRFPGCDAPAMAADIDHTRPLEHHHHHH”, “soluble”. Take “MMEMLVDQGTDASSSASTSTSSVSRFGADTFMNTPDDVMMNDDMEPIPRDRCNTWPMRRPQLEPPLNSSPIIHEQIPEEDADLYGSNEQCGQLGGASSNGSTAMLHTPDGSNSHQTSFPSDFRMSESPDDTVSGKKTTTRRNAWGNMSYAELITTAIMASPEKRLTLAQVYEWMVQNVPYFRDKGDSNSSAGWKNSIRHNLSLHSRFMRIQNEGAGKSSWWVINPDAKPGRNPRRTRERSNTIETTTKAQLEKSRRGAKKRIKERALMGSLHSTLNGNSIAGSIQTISHDLYDDDSMQGAFDNVPSSFRPRTQSNLSIPGSSSRVSPAIGSDIYDDLEFPSWVGESVPAIPSDIVDRTDQMRIDATTHIGGVQIKQESKPIKTEPIAPPPSYHELNSVRGSCAQNPLLRNPIVPSTNFKPMPLPGAYGNYQNGGITPINWLSTSNSSPLPGIQSCGIVAAQHTVASSSALPIDLENLTLPDQPLMDTMDVDALIRHELSQAGGQHIHFDL”: the “soluble on expression in E. coli” value was “not soluble”. With “IHNSRWIMTPEVKEDCKMRLFCLPFAGGGALAYRSWCRYMPPEIELCAVQLPGRENRIKDEKFYDINLLIDELVLQILPYLDKPFALYGHSMGGLISFELARRIRKVKGLTPKILFFSGSKAPQLYDHTKDISHLPDELFLKAIKSFNGMPDMFWQDRELIEFKLPTLRADFSVLEGYNYYNEEPLECPISALCGENDKIISKKDMEALALQTKNQFKLRMFDGDHFFINTCRSKVLKSIIEDLN”, the “soluble on expression in E. coli” value is recorded as “not soluble”.

In the case of “KGLDKWGIYVPESAAQSVKDAVFEAGAGAIGDYSQCSFEWQGTGQFLPHHNAQPVVGHPGQLERTEELRVEFVAPARLRTTLIDAIRAAHPYEEPAFDVVSMQSTQDLETAEGLGRVGTLPEPMRFGDFVQQVADALPETSWGIRAAGDPEQMVHTVAVSSGSGDSFLDAVAALGVDVYVTSDLRHHPADESRRAQGPLLIDTAHWASEFPWTYQVQELLAQEFAQLDVEVATLRTDPWNISAHPQLR”, the “soluble on expression in E. coli” value is given as “not soluble”. As for “RSGVLITDKPKKKDKKEEPAALQTTVQSMLISRPRELEAEVVRFQNNREKWIAFVGLKDGRPYEIFTGIADDDEGIMVPKSVTHGKIIKNRDENGERHYDFQFCNKKGFKVTIEGLDSKFNPEYWNYAKLISGVLRYGMPIEQVVHLVQGMSLNDESINTWKNGVERALKRYLPNGTTLSGQVCPSCGQETLVYQEGCLLCTSCGASKCG”, the entry is “not soluble”; as for “MSLTQSSKLIAVIVANIDDYFSTELFKGISSILESRGYIGVLFDANADIEREKTLLRAIGSRGFDGLILQSFSNPQTVQEILHQQMPVVSVDREMDACPWPQVVTDNFEAAKAATTAFRQQGYQHVVVLTSELELSRTRQERYRGILAAAQDVDVLEVSESSYNHSEVHQRLTQLITQNDQKTVAFALKERWLLEFFPNLIISGLIDNQTVTATGFADTDFIRRMEPKLTLITQNPFLMGASSAEIMLRQLAGEKVAPEKMVIPAKLQEGHHHHHH”, “soluble”; as for “MAHHHHHHMPLTCRSFCEWALAYMGTQEYTPSIIQQRNSMAAAERDPDDRNVLDFSTYEDYLDQQVTGEDLFYLEDQDAARKIVELGYKGKDVLSREEFEAAQYLARTGPLKRRESAEVITSAGKDVSDSPLLTALAKREELVRTGKLATVLFLRDYVSGQEVSAYIDYGYRLRSENFEAYFKKDKKLLPKRSDLSYYNWKTHTLFYNNSPTFQVLADSTLGLVMKHKRDRKAIHVDPNSPSPGENCSRTVVPCKDYLQAVIYDHVTRRKN”, “soluble”. In the case of “MTADWVVTFTFDADPSMETMDAWETQLEGFDALVSRVPGHGIDVTVYAPGDWSVFDALAKMAGEVMPVVQAKSPIAVQIISEPEHRLRAEAFTTPELMSAAEIADELGVSRQRVHQLRSTAGFPAPLADLRGGAVWDAAAVRRFAETWERKPGRPHTGTAKFAYSWAVGPAVGRSGKAPNVRWRVENPDKIRFVLRNIGDDIAEDVEIDLSRIDAITRNVPKKTVIRPGEGLNMVLIAAWGHPLPNQLYVRWAGQDEWAAVPLHPAH”, the “soluble on expression in E. coli” value is on record as “soluble”. Consider “MGSDKIHHHHHHMKFVEIRDLQVTYMGKDKPSIVVDKLDIEEGESVLITGRSGSGKSTLVSVINGVIPHLINAEIKGEVRVFGFDVKSTPIHEISKYVGTLLQDPDTQAFNYTIIDEVAFGVENYMISRDEMIERVEESMKIYGISHLRDREINTLSGGELQRTILASVLAMRPKALILDEPTSNIDPQGTREILELVKTFRSEGISLVLVEHKIERVLPFVDRIIVVEEGKIAVDVRKDEIVDKADFLYSLGLEIPDYMLFLKKNGFRKIDYEYLRKTYTYRPPSRIGGKGEALYASVKVKTKNGIYLINTKISLKQGTITALMGKNGSGKTTLLKVIVGLIDKKRLIVEEEKVIVNGVDLSKTKLVERGKFIAYLPQFFDVMFIKRTVEDEIKFSMKNRGTYDEKRLGEVLKMFSLDAYRKEDPLVLSMGQRRRVAMASVLAGGAKVILMDEPTSGQDWYHRQILGKELLELRDKGYTILVVTHDSRFVDRFADYLLVMNEGKIVLEGKPEEVFIKSLRHGIEPPLEYELGGLIKNEHFS”, for which the “soluble on expression in E. coli” value is “not soluble”.

Turning to “AHHHHHHGSVKFCPKCGSIMIPDRRRGVFVCRKCGYEEPINPEDTKAYRRTEEVKHRPDEGVVVIEQEVSTLPTAKVTCPKCGHNEAWWWELQTRAGDEPSTIFYKCKKCGYVWRSYE”, the “soluble on expression in E. coli” value is reported as “soluble”. In the case of “MGSDKIHHHHHHMQGVEPRERPYPQPNIQISYKKMEECPICLADDQEGEQFGCLNVCGHKFHLNCIREWHKYSINLKCPICRVESTHLEVGEGQHALSINLKMGFMIKNAIDYVGAETTNERNEDDTGEQDQEIEFLSERLRGTLVMDTIKIIQCSICGDTDVSRLSLYCQDCEAIYHETCLRGLACEVGDRNTWQECTDCRSNALLELRMGAISSQLASYDSRNSMIFAGELRDKHSVKTQQMYEQIRNAKHKIQMHVRRALDRYPLPLLRFKDAYKHVNKQVSRKLYRLSDNKYLPDQYDYDSLARTGVHTELLIYCHDE”, the “soluble on expression in E. coli” value is on record as “not soluble”. Take “MGSDKIHHHHHHMPAKVYFTDMTTNPNMNMLQKLELLLKKVELEKIIEKDKFVAVKLHFGEYGNLAFIRPQYVKIIVDQIKKLGGKPFLTDANTLYTGHRSNAVDHLINAYLNGFTYEVTGAPVIIADGLRGSDEIKVKIDGNYVKEAKIGAAIALADAIVAVTHFKGHEATGFGGTIKNVGMGSASRAGKMEQHSESKPYVVEEKCVACGTCAKFCPVGAITVTKVAKIDYEKCIGCGQCIAMCSYGAMSPKWDSSTDSLSKKMAEYAKAVLKDKKAVFISFIMNISPDCDCWNMNKPPVAPDIGIAVSTDPVALDQACIDLVLQKTGKDPFLEVHPDVTWKTQLEYAEEIGLGTREYELVKVACDLK”: the “soluble on expression in E. coli” value is “not soluble”. On to “MRKLISTIIVSTLLIGGCSTVHKEAKHSSQSIPEEVPASQYKGQGFQPVAEKSAIAHAKKYREEYEKLGEQFFKDNFSLNVKATNVVGSGDGVEVYVHCDDHDIVFNASIPFDKEAIHEEGSMRSNDNGDTMSNMVGTVLSGFEYKAQKEKYDNLTKFFKDNEEKYQYTGFTKEAIHKTQNVGYQNEYYYLAGNVTNINNYRKYYEPLIKKDSKNFKEGMKKANEATNFKAKIEVVSTLFSTKSDFTKNNSKKDLLFLSDDLYHYKEKPENTNITLQLSEPKINSTRAFYDANNPLEYGVHKHELEHHHHHH”, for which the “soluble on expression in E. coli” value is given as “soluble”.

Take “MTLDECIRLAWKQNPSVRNSVIDIKEARADYMAAVGAFLPRAAVNAETGKRFGRSIDPDTNGYTNETFEEGTVGLDMTLSLFEGFSRIHQVRFRKMNKERSEWALKNRQNELAYQVTDAYYKLILERKLLNLALEQSRLSERYLKQTEAFVELGLKSASDLQEVKARREGDIYRYKSRENTCRLALLHLEQLMNFQPGDTLVIQDTIVEANQLPLLSVPSTETLYAQSLEILPVMRMIDLKRKAARKEYAMAGGTFSPSVYARFTVGSNFYNTVFSARQLRDNIGKYVGIGISFPLLSGLERLTHQRKQKLNLYRLKNEEELEKQQLYTDIEQTLLSLHAGFSEHQQALQQLEAEALVLKESERKWEEGLISVFQLMEARNRFISAKAELVRVRLQVEMMRKLEKYYREGTFL”: the “soluble on expression in E. coli” value is on record as “not soluble”.

In the case of “MAHHHHHHMVVPVMNMTREPAVDSPENSRKISLAGYPEVAGLFCVTVFKSTLDLEVRDCCGLLTLDGVGKCVELKKFSISNCGMLTNISDLKDCVNLEMLTLSGCKTLRNLTPLKGHRTLSCITISHCERMMELDLEGATNLMQLNISDCEELKDVHVSRCTRLEVIDIHDCVKLEKLHGLTYLRELKTLILAGNRELSAVEGINELINRVEKLSLKNCEKLEDLKFLDFCNFLKEVVVAGSNVTEEKKQELRGKGVRIVNEVKVADG”, the “soluble on expression in E. coli” value was “not soluble”.

For the sequence “GGVDRWPEYYPETGRDIWIDSVMRQEYLWYRDMPSPAAPDYFQKPEAFLKKAVASMDNGFSKIDSLLDEPIPSYGFDYTLYKVLDNDTAYNALISYVVPGSPAEEAGLQRGHWIMMMNGDYITKKVESELLQGSTRQLQIGVYKEVVGEDGEVTGGVVPIGETTMPASRSLVDKPVHRFEIIPWNGKKVGYLMYNEFKAGPTTDSQAYNDDLRRAFRDFQTGGVNEFVLDLRYNTGGSLDCAQLLCTMLAPADKMNQLLALLRYSDKRVEANQDLTFNPELIQSGANLNLSTVYVLTTNATRGAAEMVINCLNPYMKVVLIGTKTAGEYVATKPFVHPTDRFILNLVVCNVYNAEEKSDYATGFKPTYEYNEDSYLSTYLPFGNTNETLLNAALKIMSGITDK”, the “soluble on expression in E. coli” value is given as “soluble”.
